# Data from article PMC13067816, “Alphaviral Capsid Proteins Inhibit Stress Granule Assembly via Competitive RNA Binding With G3BP1”.
# Target: SFV capsid (nucleocapsid N) (Semliki Forest virus (SFV4, …, UniProt P03315 1-267))
# Test: fluorescence polarization; 20 nM probe, 0-8000 nM protein; FP: 50 mM Tris-HCl pH 7.4, 150 mM NaCl, 20 nM FAM-RNA, 15 min, room temperature
row,Binder,binding result
1,GGUUGACGGGUCGGAUAGUUGCUU (ssRNA) [FAM-SFV gRNA probe1],binds
2,UUUGUCAAGCUCAUUUCCUGGUAUGACAAC (ssRNA) [FAM-GAPDH probe],binds
3,GCGUCGUGUGAGCCCCCGAAAGACCACAUA (ssRNA) [FAM-SFV gRNA probe2],binds
4,AUGCAAAGGGCUUGGACUUGGGUGGCAGAG (ssRNA) [FAM-AHNAK probe],binds
